The results in this text go back to PMC3765907, “S-Nitrosylation of parkin as a novel regulator of p53-mediated neuronal cell death in sporadic Parkinson’s disease”.

This series concerns the target parkin (wild-type, GST-tagged) (UniProt O60260 1-465). Put plainly: EMSA; parkin 100 nM to 1 uM, 0.1 nM probe; shift increases with parkin; 1x binding buffer (Panomics), room temperature, 20 min; 0.1 nM biotin probe, 1 uM parkin (100 nM-1 uM titration); 6% PAGE in 0.5x TBE pH 8.3; salt not stated. Particulars: protein: recombinant; tags: GST; label: 5' biotin; blunt.

parkin (wild-type, GST-tagged), sequence (O60260 whole entry): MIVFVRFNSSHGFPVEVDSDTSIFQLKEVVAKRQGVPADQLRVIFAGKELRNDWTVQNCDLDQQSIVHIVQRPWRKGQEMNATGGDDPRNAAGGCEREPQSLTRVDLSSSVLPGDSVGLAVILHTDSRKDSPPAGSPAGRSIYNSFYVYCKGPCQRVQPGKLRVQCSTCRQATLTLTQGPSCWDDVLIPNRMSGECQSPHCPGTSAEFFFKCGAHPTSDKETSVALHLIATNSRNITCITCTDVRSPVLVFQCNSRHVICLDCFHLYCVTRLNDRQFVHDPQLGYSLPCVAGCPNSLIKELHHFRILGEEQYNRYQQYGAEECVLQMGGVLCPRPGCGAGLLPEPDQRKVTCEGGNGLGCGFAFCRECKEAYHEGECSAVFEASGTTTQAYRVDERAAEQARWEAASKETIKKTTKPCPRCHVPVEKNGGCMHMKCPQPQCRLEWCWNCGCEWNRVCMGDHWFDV

B1: Pp53 (human p53 promoter probe) (dsDNA)
DNA 1: GGCACCAGGTCGGCGAGAATCCTGACTCTGCACCCTCCTCCCCAACTCCATTTCCTTTGCTTCCTCCGGC
DNA 2: GCCGGAGGAAGCAAAGGAAATGGAGTTGGGGAGGAGGGTGCAGAGTCAGGATTCTCGCCGACCTGGTGCC
As for B1, the binding result is given as “binds”.
